Experimental data as given in publication PMC4654935.

What was measured:
[1] = molecular target: Rab8A S111E (recombinant) (human) (UniProt P61006)
[2] = molecular target: Rab8A S111A (recombinant) (human) (UniProt P61006)
[3] = molecular target: Rab8A wild-type (recombinant) (human) (UniProt P61006)

B1: Rabin8(153-237) (domain or fragment)
chain: VREKGYERLKEELAKAQRELKLKDEECERLSKVRDQLGQELEELTASLFEEAHKMVREANIKQATAEKQLKEAQGKIDVLQAEVA
k cat/K M of Rabin8-catalysed mantGDP release from Rab8A (1 uM Rab, 100 uM GDP, 0.5 uM Rabin8, 25°C) [1]: 7600 M⁻¹ s⁻¹
k cat/K M of Rabin8-catalysed mantGDP release from Rab8A (1 uM Rab, 100 uM GDP, 0.5 uM Rabin8, 25°C) [2]: 87000 M⁻¹ s⁻¹
k cat/K M of Rabin8-catalysed mantGDP release from Rab8A (1 uM Rab, 100 uM GDP, 0.5 uM Rabin8, 25°C) [3]: 100000 M⁻¹ s⁻¹
